Values belong to the substance of their own block, whether it stands above or below them.
Key:
[1] = target: Myf5 (full length, mouse) (mouse) (UniProt P24699)
[2] = target: Myf5 (full length, mouse) (mouse) (UniProt P24699); remark: listed apart in the source
[3] = target: MyoD (full length, mouse) (mouse) (UniProt P10085)
[4] = target: Myogenin (full length, mouse) (mouse) (UniProt P12979)
[5] = target: Myf5 (full length, mouse) (mouse) (UniProt P24699); remark: listed apart in the source
[6] = target: Myogenin (full length, mouse) (mouse) (UniProt P12979); remark: listed apart in the source
[7] = target: NLSMyf5 (mouse) (UniProt P24699)
[8] = target: NLSMyogenin (mouse) (UniProt P12979)
[9] = target: E12
[10] = target: E12; assay: yeast one-hybrid, strain L40, β-galactosidase reporter
[11] = target: T1, Lethal of Scute (AS-C T3) (Drosophila melanogaster (Fruit fly)) (UniProt P09774); assay: as above
T1 sequence: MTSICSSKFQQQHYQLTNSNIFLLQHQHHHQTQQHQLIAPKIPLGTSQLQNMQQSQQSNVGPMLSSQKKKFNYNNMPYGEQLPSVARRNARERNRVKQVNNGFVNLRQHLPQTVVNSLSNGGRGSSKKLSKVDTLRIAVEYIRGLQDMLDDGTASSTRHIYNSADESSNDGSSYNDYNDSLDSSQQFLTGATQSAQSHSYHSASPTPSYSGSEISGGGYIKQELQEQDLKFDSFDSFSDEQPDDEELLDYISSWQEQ

[12] = target: Myf5 (full length, mouse) (mouse) (UniProt P24699); assay: as above
[13] = target: MyoD (full length, mouse) (mouse) (UniProt P10085); assay: as above
[14] = target: MyoDΔC-VP16 (Mus musculus (Mouse)) (UniProt P10085); assay: yeast two-hybrid, strain L40, β-galactosidase reporter
[15] = target: MyoDΔN-VP16 (Mus musculus (Mouse)) (UniProt P10085); assay: as above
[16] = target: Myf5 (full length, mouse) (mouse) (UniProt P24699); assay: yeast hybrid assay, strain L40, β-galactosidase reporter
[17] = target: VP16 (Human herpesvirus 1 (strain 17) (HHV-1) (Human herpes simplex virus 1)) (UniProt P06492); assay: as above
[18] = target: T2, VP16-I-mfa (mouse); assay: as above
T2 sequence: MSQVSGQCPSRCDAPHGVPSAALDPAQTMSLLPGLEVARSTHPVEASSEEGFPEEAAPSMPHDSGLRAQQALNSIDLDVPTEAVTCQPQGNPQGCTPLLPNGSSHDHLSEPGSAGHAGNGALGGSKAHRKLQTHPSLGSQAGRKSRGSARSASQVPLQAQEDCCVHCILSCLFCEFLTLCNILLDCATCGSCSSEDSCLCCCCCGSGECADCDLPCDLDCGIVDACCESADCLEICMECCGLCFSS

[19] = target: VP16-I-mfc (mouse); assay: as above
[20] = target: VP16-I-mfb (mouse); assay: as above
[21] = target: Myf5 (full length, mouse) (mouse) (UniProt P24699); assay: yeast hybrid assay, strain L40, β-galactosidase reporter; this LexA fusion is also active with VP16 alone
[22] = target: T2, VP16-I-mfa (mouse); assay: as above
[23] = target: VP16-I-mfb (mouse); assay: as above
[24] = target: VP16-I-mfc (mouse); assay: as above
[25] = target: Myogenin (full length, mouse) (mouse) (UniProt P12979); assay: yeast one-hybrid, strain L40, β-galactosidase reporter
[26] = target: full length Myf5 or myogenin; assay: as above
[27] = test system: Myf5 (Mus musculus); assay: cell_activity; conditions: NIH3T3
[28] = test system: MyoD (Mus musculus); assay: cell_activity; conditions: NIH3T3
[29] = test system: Myogenin (Mus musculus); assay: cell_activity; conditions: NIH3T3
[30] = test system: E12; assay: cell_activity; conditions: NIH3T3; 76.3% with I-mfa

LexA-I-mfa, sequence (P0A7C2 other isoform, or with tags, fused parts or gaps limits assumed): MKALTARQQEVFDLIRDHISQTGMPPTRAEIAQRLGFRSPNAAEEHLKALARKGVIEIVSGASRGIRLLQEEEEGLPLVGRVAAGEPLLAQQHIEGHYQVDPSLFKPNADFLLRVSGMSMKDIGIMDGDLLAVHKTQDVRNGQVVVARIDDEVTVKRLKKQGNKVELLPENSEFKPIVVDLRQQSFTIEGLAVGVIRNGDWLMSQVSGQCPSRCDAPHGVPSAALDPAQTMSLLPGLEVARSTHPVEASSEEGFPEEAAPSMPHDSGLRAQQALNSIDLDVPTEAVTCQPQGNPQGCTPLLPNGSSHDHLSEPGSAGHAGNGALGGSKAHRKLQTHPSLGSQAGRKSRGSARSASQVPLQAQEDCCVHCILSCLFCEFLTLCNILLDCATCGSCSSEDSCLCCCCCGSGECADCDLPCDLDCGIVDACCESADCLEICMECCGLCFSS
LexA-I-mfb, sequence (P0A7C2 other isoform, or with tags, fused parts or gaps limits assumed): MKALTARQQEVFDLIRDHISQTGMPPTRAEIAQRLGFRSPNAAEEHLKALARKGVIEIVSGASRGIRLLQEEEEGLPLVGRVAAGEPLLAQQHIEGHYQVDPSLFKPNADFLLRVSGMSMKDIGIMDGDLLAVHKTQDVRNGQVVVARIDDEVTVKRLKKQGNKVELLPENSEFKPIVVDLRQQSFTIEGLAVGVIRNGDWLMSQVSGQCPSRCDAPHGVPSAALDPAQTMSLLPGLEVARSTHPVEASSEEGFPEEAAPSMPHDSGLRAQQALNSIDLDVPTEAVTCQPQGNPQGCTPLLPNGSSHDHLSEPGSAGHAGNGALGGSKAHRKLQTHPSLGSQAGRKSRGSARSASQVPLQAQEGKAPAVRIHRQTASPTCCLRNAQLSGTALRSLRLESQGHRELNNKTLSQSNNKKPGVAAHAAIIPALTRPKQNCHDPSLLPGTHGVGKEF
LexA-I-mfc, sequence (P0A7C2 other isoform, or with tags, fused parts or gaps limits assumed): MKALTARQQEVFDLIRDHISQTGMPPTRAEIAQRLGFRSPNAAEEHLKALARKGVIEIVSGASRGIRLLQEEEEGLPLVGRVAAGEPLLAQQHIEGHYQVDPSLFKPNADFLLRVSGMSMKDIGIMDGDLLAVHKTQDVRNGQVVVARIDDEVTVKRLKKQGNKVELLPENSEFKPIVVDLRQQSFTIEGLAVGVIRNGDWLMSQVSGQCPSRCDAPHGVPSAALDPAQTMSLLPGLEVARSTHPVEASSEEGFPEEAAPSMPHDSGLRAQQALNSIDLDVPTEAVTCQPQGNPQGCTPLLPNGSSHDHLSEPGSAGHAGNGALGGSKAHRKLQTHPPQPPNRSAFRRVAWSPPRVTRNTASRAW
LexA-I-mfa (163-246), sequence (P0A7C2 other isoform, or with tags, fused parts or gaps limits assumed): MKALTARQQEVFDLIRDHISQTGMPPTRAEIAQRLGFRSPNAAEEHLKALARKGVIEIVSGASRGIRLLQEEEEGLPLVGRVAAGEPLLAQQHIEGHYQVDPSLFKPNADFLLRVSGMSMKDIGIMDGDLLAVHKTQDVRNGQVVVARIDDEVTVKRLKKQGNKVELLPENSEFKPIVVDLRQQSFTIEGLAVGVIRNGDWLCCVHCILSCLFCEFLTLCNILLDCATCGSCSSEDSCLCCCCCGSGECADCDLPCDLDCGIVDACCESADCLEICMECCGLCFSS
Myogenin (full length, mouse) (mouse), sequence (P12979 whole entry): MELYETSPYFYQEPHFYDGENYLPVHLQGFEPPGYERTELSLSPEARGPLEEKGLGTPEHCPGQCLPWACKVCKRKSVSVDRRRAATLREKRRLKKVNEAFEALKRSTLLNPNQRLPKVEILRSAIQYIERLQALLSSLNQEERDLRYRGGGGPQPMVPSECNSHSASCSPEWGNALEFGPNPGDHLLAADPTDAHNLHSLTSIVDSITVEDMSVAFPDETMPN
LexA, sequence (P0A7C2 whole entry): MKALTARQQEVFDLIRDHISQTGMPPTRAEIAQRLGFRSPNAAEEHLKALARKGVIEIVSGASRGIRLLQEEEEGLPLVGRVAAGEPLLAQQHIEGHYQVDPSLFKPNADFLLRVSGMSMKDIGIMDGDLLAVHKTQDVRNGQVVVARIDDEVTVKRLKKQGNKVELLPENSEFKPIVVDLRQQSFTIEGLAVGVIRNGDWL
LexA-I-mfa (203-246), sequence (P0A7C2 other isoform, or with tags, fused parts or gaps limits assumed): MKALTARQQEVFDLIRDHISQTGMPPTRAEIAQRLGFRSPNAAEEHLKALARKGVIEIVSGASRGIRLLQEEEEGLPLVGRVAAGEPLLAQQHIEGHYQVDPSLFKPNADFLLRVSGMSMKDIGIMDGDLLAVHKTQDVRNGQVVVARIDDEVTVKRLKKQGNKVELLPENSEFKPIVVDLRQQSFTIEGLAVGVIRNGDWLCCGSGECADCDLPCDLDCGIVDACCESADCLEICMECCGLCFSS

CAT (%) +Myf5, p4R-TK-CAT reporter, NIH3T3 [1]: 2%
Relative CAT Activity (%), p4R-TK-CAT, NIH3T3 [2]: 0.9%
Relative CAT Activity (%), p4R-TK-CAT, NIH3T3 [3]: 10.6%
Relative CAT Activity (%), p4R-TK-CAT, NIH3T3 [4]: 1.5%
Relative CAT Activity (%), experiment of Table 7 [5]: 0.1%
Relative CAT Activity (%), experiment of Table 7 [6]: 0.6%
Relative CAT Activity (%), experiment of Table 7 [7]: 3.7%
Relative CAT Activity (%), experiment of Table 7 [8]: 7.5%
Substance: HA-I-mfa

CAT (%) +E12, p4R-TK-CAT reporter, NIH3T3 [9]: 113%
CAT (%) +Myf5, p4R-TK-CAT reporter, NIH3T3 [1]: 5%
Substance: HA-I-mfa (1-202)

CAT (%) +E12, p4R-TK-CAT reporter, NIH3T3 [9]: 81%
CAT (%) +Myf5, p4R-TK-CAT reporter, NIH3T3 [1]: 4%
Substance: HA-I-mfa (29-246)

CAT (%) +E12, p4R-TK-CAT reporter, NIH3T3 [9]: 89%
CAT (%) +Myf5, p4R-TK-CAT reporter, NIH3T3 [1]: 7%
Substance: HA-I-mfa (87-202)

CAT (%) +E12, p4R-TK-CAT reporter, NIH3T3 [9]: 53%
CAT (%) +Myf5, p4R-TK-CAT reporter, NIH3T3 [1]: 2%
Substance: HA-I-mfa (87-246)

Substance: HA-I-mfa (163-202)
CAT (%) +E12, p4R-TK-CAT reporter, NIH3T3 [9]: 98%
CAT (%) +Myf5, p4R-TK-CAT reporter, NIH3T3 [1]: 44%

CAT (%) +E12, p4R-TK-CAT reporter, NIH3T3 [9]: 18%
CAT (%) +Myf5, p4R-TK-CAT reporter, NIH3T3 [1]: 2%
Substance: HA-I-mfa (163-246)

CAT (%) +E12, p4R-TK-CAT reporter, NIH3T3 [9]: 93%
CAT (%) +Myf5, p4R-TK-CAT reporter, NIH3T3 [1]: 78%
Substance: HA-I-mfa (203-246)

CAT (%) +E12, p4R-TK-CAT reporter, NIH3T3 [9]: 100%
CAT (%) +Myf5, p4R-TK-CAT reporter, NIH3T3 [1]: 74.5%
Relative CAT Activity (%), p4R-TK-CAT, NIH3T3 [2]: 94.8%
Relative CAT Activity (%), p4R-TK-CAT, NIH3T3 [3]: 96.5%
Relative CAT Activity (%), p4R-TK-CAT, NIH3T3 [4]: 82.7%
Substance: HA-I-mfb

CAT (%) +E12, p4R-TK-CAT reporter, NIH3T3 [9]: 99%
CAT (%) +Myf5, p4R-TK-CAT reporter, NIH3T3 [1]: 65%
Relative CAT Activity (%), p4R-TK-CAT, NIH3T3 [2]: 96.4%
Relative CAT Activity (%), p4R-TK-CAT, NIH3T3 [3]: 96.1%
Relative CAT Activity (%), p4R-TK-CAT, NIH3T3 [4]: 68%
Substance: HA-I-mfc

Substance: LexA (from UniProt P0A7C2)
β-galactosidase activity (arbitrary units) [10]: 2.3
β-galactosidase activity (arbitrary units) [11]: 1.6
β-galactosidase activity (arbitrary units) [12]: 0.9
β-galactosidase activity (arbitrary units) [13]: 0.6
β-galactosidase activity (arbitrary units) [14]: 0.6
β-galactosidase activity (arbitrary units) [15]: 0.9

Substance: LexA-I-mfa (1-202) (from UniProt P0A7C2)
β-galactosidase activity (arbitrary units) [16]: 34.5
β-galactosidase activity (arbitrary units) [17]: < 0.1
β-galactosidase activity (arbitrary units) [18]: 95

Substance: LexA-I-mfa (29-246) (from UniProt P0A7C2)
β-galactosidase activity (arbitrary units) [16]: 84.7
β-galactosidase activity (arbitrary units) [17]: 0.8
β-galactosidase activity (arbitrary units) [18]: 10.1

Substance: LexA-I-mfa (87-202) (from UniProt P0A7C2)
β-galactosidase activity (arbitrary units) [16]: 27.6
β-galactosidase activity (arbitrary units) [17]: < 0.1
β-galactosidase activity (arbitrary units) [18]: 9.3

Substance: LexA-I-mfa (87-246) (from UniProt P0A7C2)
β-galactosidase activity (arbitrary units) [16]: 74.3
β-galactosidase activity (arbitrary units) [17]: 0.8
β-galactosidase activity (arbitrary units) [18]: 12.5
β-galactosidase activity (arbitrary units) [19]: 0.7

Substance: LexA-I-mfa (163-246) (from UniProt P0A7C2)
β-galactosidase activity (arbitrary units) [16]: 71.3
β-galactosidase activity (arbitrary units) [17]: 0.3
β-galactosidase activity (arbitrary units) [18]: 3.8
β-galactosidase activity (arbitrary units) [20]: 0.6
β-galactosidase activity (arbitrary units) [19]: 0.2

Substance: LexA-I-mfa (203-246) (from UniProt P0A7C2)
β-galactosidase activity (arbitrary units) [17]: 45.8
β-galactosidase activity (arbitrary units) [21]: 57.2
β-galactosidase activity (arbitrary units) [22]: 95.2
β-galactosidase activity (arbitrary units) [23]: 39.2
β-galactosidase activity (arbitrary units) [24]: 52.3

Substance: LexA-I-mfa (from UniProt P0A7C2)
β-galactosidase activity (arbitrary units) [10]: 2.3
β-galactosidase activity (arbitrary units) [11]: 2.3
β-galactosidase activity (arbitrary units) [12]: 68.5
fold β-galactosidase activity over the LexA-I-mfa control [13]: 5 fold
β-galactosidase activity (arbitrary units) [13]: 4.3
β-galactosidase activity (arbitrary units) [25]: 63.6
fold β-galactosidase activity over LexA-I-mfa alone [26]: 70 to 80 fold
β-galactosidase activity (arbitrary units) [14]: 5.6
β-galactosidase activity (arbitrary units) [15]: 96.4
β-galactosidase activity (arbitrary units) [16]: 66
β-galactosidase activity (arbitrary units) [17]: 0.5
β-galactosidase activity (arbitrary units) [18]: 6.4

Substance: LexA-I-mfa(163-202) (from UniProt P0A7C2)
β-galactosidase activity (arbitrary units) [16]: 57.1
β-galactosidase activity (arbitrary units) [18]: 4.3
β-galactosidase activity (arbitrary units) [20]: 0.2
β-galactosidase activity (arbitrary units) [19]: < 0.1

Substance: LexA-I-mfb (from UniProt P0A7C2)
β-galactosidase activity (arbitrary units) [10]: 0.6
β-galactosidase activity (arbitrary units) [12]: 0.4
β-galactosidase activity (arbitrary units) [13]: 1.1
β-galactosidase activity (arbitrary units) [16]: < 0.1
β-galactosidase activity (arbitrary units) [17]: < 0.1
β-galactosidase activity (arbitrary units) [18]: 0.2
β-galactosidase activity (arbitrary units) [20]: < 0.1

Substance: LexA-I-mfc (from UniProt P0A7C2)
β-galactosidase activity (arbitrary units) [10]: 1.4
β-galactosidase activity (arbitrary units) [11]: 0.1
β-galactosidase activity (arbitrary units) [13]: 0.4
β-galactosidase activity (arbitrary units) [17]: < 0.1
β-galactosidase activity (arbitrary units) [18]: < 0.1
β-galactosidase activity (arbitrary units) [19]: < 0.1

Substance: MCK-CAT reporter, 3.3 kb MCK promoter
activity ([27]; reduced to 9% by I-mfa, text names p4R-TK-CAT but Table 6 MCK-CAT): 79500 CAT units
activity ([28]; reduced to 27% by I-mfa, text names p4R-TK-CAT but Table 6 MCK-CAT): 37200 CAT units
activity ([29]; reduced to 2% by I-mfa, text names p4R-TK-CAT but Table 6 MCK-CAT): 33000 CAT units

Substance: p4R-TK-CAT reporter, four oligomerized MyoD binding sites (E boxes)
activity [30]: 53600 CAT units
activity ([27]; reduced to 0.9% by I-mfa): 53100 CAT units
activity ([28]; reduced to 10.6% by I-mfa): 55400 CAT units
activity ([29]; reduced to 1.5% by I-mfa): 17400 CAT units

Source: patent US5885797
